Data on 3 variants can be found in IntAct's records for PubMed 20581825.

To fix the notation:
B1: Periplasmic serine endoprotease DegP (Escherichia coli (strain K12)), P0C0V0 (parent)
chain: MKKTTLALSALALSLGLALSPLSATAAETSSATTAQQMPSLAPMLEKVMPSVVSINVEGSTTVNTPRMPRNFQQFFGDDSPFCQEGSPFQSSPFCQGGQGGNGGGQQQKFMALGSGVIIDADKGYVVTNNHVVDNATVIKVQLSDGRKFDAKMVGKDPRSDIALIQIQNPKNLTAIKMADSDALRVGDYTVAIGNPFGLGETVTSGIVSALGRSGLNAENYENFIQTDAAINRGNSGGALVNLNGELIGINTAILAPDGGNIGIGFAIPSNMVKNLTSQMVEYGQVKRGELGIMGTELNSELAKAMKVDAQRGAFVSQVLPNSSAAKAGIKAGDVITSLNGKPISSFAALRAQVGTMPVGSKLTLGLLRDGKQVNVNLELQQSSQNQVDSSSIFNGIEGAEMSNKGKDQGVVVNNVKTGTPAAQIGLKKGDVIIGANQQAVKNIAELRKVLDSKPSVLALNIQRGDSTIYLLMQ
partner: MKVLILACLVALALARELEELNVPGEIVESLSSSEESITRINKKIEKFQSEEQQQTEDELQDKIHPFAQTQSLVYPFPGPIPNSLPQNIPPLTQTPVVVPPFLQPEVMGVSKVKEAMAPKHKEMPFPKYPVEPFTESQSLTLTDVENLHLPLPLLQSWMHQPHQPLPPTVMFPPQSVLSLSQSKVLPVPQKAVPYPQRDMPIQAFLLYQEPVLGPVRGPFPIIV

The variants in one experiment derive from B1. The note with it: with casb_bovin CSN2, P02666.
As to L291W, the “effect of a mutation on the interaction” value is reported as “disrupting interaction”.
The same measure, in the same setting: to R351A;Q353A belongs “disrupting interaction”.

The variants in the next experiment derive from B1. Conditions: with casb_bovin CSN2, P02666. This is another data set of the same source.
As for R351A;Q353A, the “effect of a mutation on the interaction” value is “decreasing interaction”.
For the variant R213A, the “effect of a mutation on the interaction” value is “disrupting interaction”.
